Laboratory results from patent US20250340633A1 (DIATHEVA S R L, published 2025).

What was measured:
[1] = target: T1, CEACAM1 antigen (Diatheva) (UniProt P13688 35-428, limits assumed); assay: ELISA titration on coated CEACAM1; EC50 of the scFv against that of IgG4 clone 2
T1 construct: Purchased antigen; also called CEA Cell Adhesion Molecule 1
T1 sequence (looked up): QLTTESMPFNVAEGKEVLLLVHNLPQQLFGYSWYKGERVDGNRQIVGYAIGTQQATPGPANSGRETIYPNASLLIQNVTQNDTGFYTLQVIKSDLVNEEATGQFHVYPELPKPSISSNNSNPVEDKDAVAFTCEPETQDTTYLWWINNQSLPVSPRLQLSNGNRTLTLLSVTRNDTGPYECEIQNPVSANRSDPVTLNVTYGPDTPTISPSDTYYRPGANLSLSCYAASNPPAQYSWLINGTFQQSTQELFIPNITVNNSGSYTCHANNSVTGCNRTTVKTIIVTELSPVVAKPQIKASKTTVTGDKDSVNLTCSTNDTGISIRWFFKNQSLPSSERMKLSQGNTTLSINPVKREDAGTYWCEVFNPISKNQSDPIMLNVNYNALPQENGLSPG

[2] = target: T1, CEACAM1 antigen (Diatheva); assay: ELISA titration on coated CEACAM1; EC50 of the scFv against that of IgG1 clone 12
[3] = target: T1, CEACAM1 antigen (Diatheva); assay: ELISA titration on coated CEACAM1; detection with anti-His6 and anti-mouse HRP
Protocol: 96 wells microtiter plates (MAXISORB NUNC) were coated with 100 μl/well of CEACAM1 antigen (Diatheva) solution 1 μg/ml diluted in PBS pH 7.3 and incubated overnight (ON) at 37° C. Plates were washed five times with PBS added with 0.05% (v/v) Tween 20 pH 7.3 (PBST) (the same washing procedure was repeated after each incubation step during the assays) and then blocked with 1% (w/v) BSA dissolved in PBS (150 μl/well) and maintained at 37° C. for 60 min. After washing, serial dilutions of IgG1 or IgG4 in PBS containing 2% (w/v) not-fat dry milk (PBSM) were added to the plate (100 μl/well) and incubated for 90 min at 37° C. […] Finally, the detection was performed after addition of 2,2′-azino-bis(3-ethylbenzthiazoline-6-sulphonic acid) (ABTS; Roche, 10102946001) as substrate. The absorbance values were read by a microplate reader (Bio-Rad Laboratories) at 405 nm after 45 min. In FIG. 4 are reported the results obtained with IgG1 (black line) and IgG4 (grey line) antibodies purified after transient expression in HEK293T cells. The absorbance of the mock sample is shown by the dotted line. The ELISA assay highlighted a higher affinity for the CEACAM1 antigen of the antibody belonging to the IgG1 subclass compared to the same antibody with the IgG4 (S228P) constant region. […]

[4] = target: T1, CEACAM1 antigen (Diatheva); assay: ELISA titration on coated CEACAM1; antibody from stable clone 2
Protocol: 96 wells microtiter plates (MAXISORB NUNC) were coated with 100 μl/well of CEACAM1 antigen (Diatheva) solution 1 μg/ml diluted in PBS pH 7.3 and incubated overnight (ON) at 37° C. Plates were washed five times with PBS added with 0.05% (v/v) Tween 20 pH 7.3 (PBST) (the same washing procedure was repeated after each incubation step during the assays) and then blocked with 1% (w/v) BSA dissolved in PBS (150 μl/well) and maintained at 37° C. for 60 min. After washing, serial dilutions of IgG1 or IgG4 in PBS containing 2% (w/v) not-fat dry milk (PBSM) were added to the plate (100 μl/well) and incubated for 90 min at 37° C. After washes, plates were incubated at 37° C. for 60 min with an anti-human Fc antibody HRP conjugated (Meridian) diluted 1:500 v/v in PBSM. Finally, the detection was performed after addition of 2,2′-azino-bis(3-ethylbenzthiazoline-6-sulphonic acid) (ABTS; Roche, 10102946001) as substrate. The absorbance values were read by a microplate reader (Bio-Rad Laboratories) at 405 nm after 45 min. In FIG. […] The absorbance of the mock sample is shown by the dotted line. The ELISA assay highlighted a higher affinity for the CEACAM1 antigen of the antibody belonging to the IgG1 subclass compared to the same antibody with the IgG4 (S228P) constant region. […]

[5] = target: T1, CEACAM1 antigen (Diatheva); assay: ELISA titration on coated CEACAM1; antibody purified after transient expression in HEK293T
Protocol: Purified antibodies were analysed for their reactivity against CEACAM1 antigen in ELISA titration assay as follow:
(§1) 96 wells microtiter plates (MAXISORB NUNC) were coated with 100 μl/well of CEACAM1 antigen (Diatheva) solution 1 μg/ml diluted in PBS pH 7.3 and incubated overnight (ON) at 37° C. Plates were washed five times with PBS added with 0.05% (v/v) Tween 20 pH 7.3 (PBST) (the same washing procedure was repeated after each incubation step during the assays) and then blocked with 1% (w/v) BSA dissolved in PBS (150 μl/well) and maintained at 37° C. for 60 min. After washing, serial dilutions of IgG1 or IgG4 in PBS containing 2% (w/v) not-fat dry milk (PBSM) were added to the plate (100 μl/well) and incubated for 90 min at 37° C. After washes, plates were incubated at 37° C. for 60 min with an anti-human Fc antibody HRP conjugated (Meridian) diluted 1:500 v/v in PBSM. Finally, the detection was performed after addition of 2,2′-azino-bis(3-ethylbenzthiazoline-6-sulphonic acid) (ABTS; Roche, 10102946001) as substrate. The absorbance values were read by a microplate reader (Bio-Rad Laboratories) at 405 nm after 45 min. In FIG. 4 are reported the results obtained with IgG1 (black line) and IgG4 (grey line) antibodies purified after transient expression in HEK293T cells. The absorbance of the mock sample is shown by the dotted line. […]

[6] = target: T1, CEACAM1 antigen (Diatheva); assay: ELISA titration on coated CEACAM1; antibody from stable clone 12
Protocol: as §1

B1: scFvDIATHIS-1 (scFv, V domains shown)
VH: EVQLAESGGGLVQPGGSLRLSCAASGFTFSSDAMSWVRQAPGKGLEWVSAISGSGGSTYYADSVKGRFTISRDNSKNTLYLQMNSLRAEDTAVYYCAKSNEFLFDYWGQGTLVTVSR
VL: SELTQDPAVSVALGQTVRITCQGDSLRSSYASWYRQRPGQAPVPVIYGKNNRPSGIPDRFSGSSSGNTASLTITGAQAEDEADYYCNSSYAWLPYVVFGGGTKLTVLG
notes: Single-chain fragment described in WO2011160859A1; Detection with an anti-His6 antibody implies a His6 tag
[1]
  fold of EC50 against IgG4: ~2 fold
[2]
  fold of EC50 against IgG1: ~4 fold
[3]
  EC50: 4.16 µg/mL

B2: IgG4 (S228P) anti-CEACAM1 mAb (antibody, not shown: large carriers)
heavy: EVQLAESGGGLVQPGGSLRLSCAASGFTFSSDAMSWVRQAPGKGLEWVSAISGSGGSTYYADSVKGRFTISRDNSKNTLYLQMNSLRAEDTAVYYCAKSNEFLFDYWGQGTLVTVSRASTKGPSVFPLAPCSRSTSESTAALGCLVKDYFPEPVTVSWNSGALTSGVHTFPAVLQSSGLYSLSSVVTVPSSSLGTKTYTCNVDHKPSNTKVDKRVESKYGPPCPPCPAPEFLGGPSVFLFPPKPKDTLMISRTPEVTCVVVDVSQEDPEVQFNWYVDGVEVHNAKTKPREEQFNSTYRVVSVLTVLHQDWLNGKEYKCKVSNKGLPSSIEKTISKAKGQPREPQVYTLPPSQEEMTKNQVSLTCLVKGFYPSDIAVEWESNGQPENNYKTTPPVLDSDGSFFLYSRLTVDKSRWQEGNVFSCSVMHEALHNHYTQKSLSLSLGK
light: SELTQDPAVSVALGQTVRITCQGDSLRSSYASWYRQRPGQAPVPVIYGKNNRPSGIPDRFSGSSSGNTASLTITGAQAEDEADYYCNSSYAWLPYVVFGGGTKLTVLG
notes: also called IgG4 clone 2
[4]
  EC50: 2.55 µg/mL
[5]
  EC50: 26.7 µg/mL

B3: DIA-12.3 IgG1 (antibody)
heavy: not shown
light: SELTQDPAVSVALGQTVRITCQGDSLRSSYASWYRQRPGQAPVPVIYGKNNRPSGIPDRFSGSSSGNTASLTITGAQAEDEADYYCNSSYAWLPYVVFGGGTKLTVLGGQPKANPTVTLFPPSSEELQANKATLVCLISDFYPGAVTVAWKADGSPVKAGVETTKPSKQSNNKYAASSYLSLTPEQWKSHRSYSCQVTHEGSTVEKTVAPTECS
notes: The preparation is named under assay in each row; also called IgG1 anti-CEACAM1 mAb; IgG1 clone 12
[6]
  EC50: 1.27 µg/mL
[5]
  EC50: 12.8 µg/mL
